Experimental findings from patent US20200002434A1 (BIOSION, published 2020) are described below.

For assay [1], the target named is T1, recombinant Macaca mulatta ErbB2-ECD (Macaca mulatta, UniProt I0FM22 23-652).
T1 construct: extracellular domain
As to the kind of experiment: indirect ELISA, coated ErbB2-ECD. As to the method:
(§1) Using indirect ELISA described in Example 1, the binding activity of antibodies of this invention to recombinant ErbB2-ECD derived from different species such as mouse, rat, Macaca mulatta, Macaca fascicularis and human, was examined. Briefly. Coat 96-well ELISA plates with 1 ug/ml recombinant ErbB2-ECD of different species with 100 ul/well and incubate at 4° C. for overnight. Remove the coating solution by discarding and tapping gently on a filter paper. Add 200 ul/well blocking buffer, incubate at 37° C. for 1-2 hours. Add purified antibody of this invention and incubate at 37° C. for one hour. Wash the plate 3 times with PBST, add goat anti-mouse IgG-HRP 100 ul/well, incubate at 37° C. for one hour. Wash the plate 3 times with PBST, add 100 ul/well TMB after 15 min, add 50 ul/well 1N HCl. Read the plate with Microplate Reader at 450 nm wavelength.
(§2) Following the same method described in Example 5, the binding activity of the chimeric antibodies of this invention was examined for binding recombinant ErbB2-ECD derived from different species such as mouse, rat Macaca mulatta, Macaca fasciculari and human.
On the technique in general: An ELISA detects its analyte on a solid surface through an enzyme-linked reagent.

In assay [2] the target is T2, recombinant rat ErbB2-ECD (rat, UniProt P06494 23-654).
T2 construct: extracellular domain
T2 sequence (P06494 23-654): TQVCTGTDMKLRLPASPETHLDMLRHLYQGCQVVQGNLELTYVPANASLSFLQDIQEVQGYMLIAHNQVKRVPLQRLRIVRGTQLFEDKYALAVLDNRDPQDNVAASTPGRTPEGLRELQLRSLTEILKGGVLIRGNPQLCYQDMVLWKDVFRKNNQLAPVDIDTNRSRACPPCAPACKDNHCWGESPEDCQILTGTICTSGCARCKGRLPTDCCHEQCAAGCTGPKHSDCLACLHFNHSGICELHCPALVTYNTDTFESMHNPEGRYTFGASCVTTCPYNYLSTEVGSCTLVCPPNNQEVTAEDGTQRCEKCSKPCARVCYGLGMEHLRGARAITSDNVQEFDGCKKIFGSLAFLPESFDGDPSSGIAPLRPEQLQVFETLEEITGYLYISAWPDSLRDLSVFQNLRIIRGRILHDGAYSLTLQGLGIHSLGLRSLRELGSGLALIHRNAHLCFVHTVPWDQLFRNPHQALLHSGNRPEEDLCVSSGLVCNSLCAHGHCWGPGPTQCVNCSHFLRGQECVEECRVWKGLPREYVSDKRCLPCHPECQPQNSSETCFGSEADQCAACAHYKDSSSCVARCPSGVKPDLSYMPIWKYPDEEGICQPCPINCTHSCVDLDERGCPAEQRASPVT
As to the kind of experiment: indirect ELISA, coated ErbB2-ECD. As to the method:
as §1, §2

Assay [3] concerns the target T3, recombinant mouse ErbB2-ECD (mouse, UniProt P70424 23-653).
T3 construct: extracellular domain
As to the kind of experiment: indirect ELISA, coated ErbB2-ECD. As to the method:
as §1, §2

Assay [4] addresses T4, recombinant human ErbB2 extracellular domain (ErbB2-ECD) (human, UniProt P04626 23-652).
T4 construct: extracellular domain; Coated on plates or used biotin-labeled in solution (capture ELISA); also called Human ErbB2-ECD; rhErbB2
Kind of assay: capture ELISA, recombinant ErbB2-ECD. Here is the method:
(§3) The corresponding purified IgG of five antibodies of this invention were also evaluated for their binding activity to recombinant human ErbB2 by capture ELISA. The procedure is briefly described as following: The 96-well plates were coated with 0.5 μg/ml anti-ErbB2 antibody overnight, blocked by 1% BSA in PBST at 37° C. for one hour. Add serial diluted sample of biotin-human ErbB2-ECD started with 2 μg/ml with 1:5 serial dilution. Wash the plate 3 times with PBST and add 100 ul of HRP-streptavidin (1:5000) to each well. Incubate for another 40 min at 37° C. Wash the plate 3 times with PBST and add 100 ul/well of TMB to develop at RT for 15 min followed by quenching with 50 ul 1N HCl. Read the plates at 450 nm for OD's value. Calculate the binding EC50 by using Prism software and the results are in Table 8 below
The variable domains of the heavy and light chain of the anti-ErbB2 monoclonal antibodies (Table 12, above) were cloned in-frame to human IgG1 heavy-chain and kappa light-chain constant regions, respectively.

The target of assay [5] is T4, recombinant human ErbB2 extracellular …. Kind of assay: capture ELISA, recombinant ErbB2-ECD. The source holds these as a separate data set.
The target of assay [6] is human ErbB2 on ErbB2-positive cells (human, UniProt P04626 23-1255). As to the kind of experiment: cell-based or functional assay.
The target of assay [7] is T1, recombinant Macaca mulatta ErbB2-ECD. Kind of assay: indirect ELISA, coated ErbB2-ECD 1 ug/ml. As to the method: as §1
In assay [8] the target is T2, recombinant rat ErbB2-ECD. Kind of assay: indirect ELISA, coated ErbB2-ECD 1 ug/ml. As to the method:
as §1

For assay [9], the target named is T3, recombinant mouse ErbB2-ECD. As to the kind of experiment: indirect ELISA, coated ErbB2-ECD 1 ug/ml. As to the method:
as §1

In assay [10] the target is T4, recombinant human ErbB2 extracellular …. Kind of assay: capture ELISA, coated antibody, biotin-human ErbB2-ECD titrated. As to the method: as §3
Assay [11] shares this target. As to the kind of experiment: capture ELISA, recombinant ErbB2-ECD. The source holds these as a separate data set.

Changes are numbered by the printed parent chain. Names and notes keep the numbering of the source.

T3 sequence (P70424 23-653): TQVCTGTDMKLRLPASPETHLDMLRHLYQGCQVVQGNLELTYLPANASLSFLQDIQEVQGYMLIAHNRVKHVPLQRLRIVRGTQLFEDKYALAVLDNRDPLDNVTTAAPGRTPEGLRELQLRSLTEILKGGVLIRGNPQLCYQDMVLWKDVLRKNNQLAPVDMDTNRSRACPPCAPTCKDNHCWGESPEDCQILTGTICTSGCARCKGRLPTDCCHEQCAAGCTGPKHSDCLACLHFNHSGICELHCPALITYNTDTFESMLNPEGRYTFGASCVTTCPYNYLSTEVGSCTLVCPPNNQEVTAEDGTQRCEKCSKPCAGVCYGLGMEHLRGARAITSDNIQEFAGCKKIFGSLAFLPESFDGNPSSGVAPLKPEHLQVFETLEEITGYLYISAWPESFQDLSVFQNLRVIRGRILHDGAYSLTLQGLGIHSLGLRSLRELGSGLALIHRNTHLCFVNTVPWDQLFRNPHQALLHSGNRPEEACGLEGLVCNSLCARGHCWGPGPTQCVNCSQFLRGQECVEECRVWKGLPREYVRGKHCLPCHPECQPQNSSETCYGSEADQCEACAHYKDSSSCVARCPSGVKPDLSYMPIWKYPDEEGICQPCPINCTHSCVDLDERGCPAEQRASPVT

B1: 5F12 chimera (antibody, V domains shown)
VH: QVQLQQSGAELARPGASVKMSCKASGYTFTSYTMHWIKQRPGQGLEWIGYINPSSSYTNYNQNFKDKATLTADKSSSTANMQLNSLTSEDSAVYYCARASSYSLDYWGQGTALTVSS
VL: DIQMTQSPSSLSTSLGGKVTITCKASQDINKYIAWYQHKPGKGPRLLIHSTSTLYPGIPSRFSGSGSGKDYSFRITNLEPEDIATYYCLQYDNLLWTFGGGTKLGIR
notes: also called 5F12 chimeric; 5F12 chimeric antibody
On to B1, for which the results for the binding result in assay [1], in assay [2] and in assay [3] were “binds”, “no binding” and “no binding”, respectively. Also, the 50% effective concentration (EC50) in [4] was 0.024 nM; in [5] it was 0.043 nM.

B2: 5G9 mouse anti-ErbB2 monoclonal antibody (antibody, mouse IgG1, V domains shown)
VH: QVQLQQSGAELARPGASVKMSCKTSGYTFSSYTIHWVKQRPGQGLDWIGYINPSSDYTAYNQKFRDKATLTADQSSNTAYMQLSSLASADSAVYYCARASAFSLDFWGQGTTLTVSS
VL: DIQMTQSPSSLSASLGGKVTISCKASHDIDRYIAWYQHKPGKGPRLLIHYTSTLQPGIPSRFSGSGSGRDYSFSISNLEPEDVATYYCLNYDNLLWTFGGGTKLEIT
notes: also called 5G91B42A3; IgG 5G9
Regarding B2, in [6], the “BT474 cell proliferation inhibition IC50 (hIgG + 5G9)” value was about 1.33 nM. For the same molecule, the binding result in [7] is recorded as “binds”; in assay [8] it was “no binding”; in assay [9] it was “no binding”. The EC50 in [10] is 0.499 nM.

B3: 4C9 chimera (antibody, V domains shown)
VH: B2 VH with T24A, S30T, I34M, D56G, A59T, R65K, Q74K, N77S, F102Y, F106Y
VL: B2 VL with K18R, S22T, V83I, N90K
notes: also called 4C9 chimeric antibody
On to B3, for which the binding result in [1] is on record as “binds”; in [2], “no binding”; in assay [3], “no binding”. Moreover, in [4], the EC50 came to 0.114 nM.

B4: 5F12.v2 humanized antibody (antibody, V domains shown)
VH: EVQLVQSGAEVKKPGSSVKVSCKASGYTFTSYTMHWIRQAPGQGLEWIGYINPSSSYTNYNQNFKDRATLTADKSTSTAYMELSSLRSEDTAVYYCARASSYSLDYWGQGTLVTVSS
VL: DIQMTQSPSSLSASVGDRVTITCKASQDINKYIAWYQQKPGKGPKLLIHSTSTLYPGIPSRFSGSGSGKDYTFTISSLQPEDIATYYCLQYDNLLWTFGQGTKVEIK
notes: VH.v1/VL.1, back mutations 0/H38Q
Consider B4, for which the EC50 in assay [5] is 0.034 nM.

B5: 5G9.v1 humanized antibody (antibody, V domains shown)
VH: EVQLVQSGAEVKKPGSSVKVSCKTSGYTFSSYTIHWVRQAPGQGLEWIGYINPSSDYTAYNQKFRDRATLTADQSTNTAYMELSSLRSEDTAVYYCARASAFSLDFWGQGTLVTVSS
VL: B4 VL with Q27H, N30D, K31R, Q38H, S50Y, Y55Q, K69R, F73L, I83V, Q90N
notes: VH.v1/VL.v1, back mutations 0/0
Take B5: the EC50 in assay [11] was found to be 0.031 nM.

B6: 5G9.v6 humanized antibody (antibody, V domains shown)
VH: B5 VH
VL: B4 VL with Q27H, N30D, K31R, Q38H, S50Y, Y55Q, K69T, F73L, I83V, Q90N
notes: VH.v1/VL.5, back mutations 0/R69T
As to B6, the EC50 in [11] was found to be 0.044 nM.

B7: 5G9.v11 humanized antibody (antibody, V domains shown)
VH: B5 VH with N77S
VL: B4 VL with Q27H, N30D, K31R, Q38H, S50Y, Y55Q, K69R, F73L, I83V, Q90N
notes: VH.4/VL.v1, back mutations N76S/0
Regarding B7, the EC50 in assay [11] turned out to be 0.081 nM.

B8: 5G9.v10 humanized antibody (antibody, V domains shown)
VH: B5 VH with Q74K
VL: B4 VL with Q27H, N30D, K31R, Q38H, S50Y, Y55Q, K69R, F73L, I83V, Q90N
notes: VH.3/VL.v1, back mutations Q73K/0
On to B8, for which the EC50 in assay [11] was determined as 0.029 nM.

B9: 5F12.v8 humanized antibody (antibody, V domains shown)
VH: B4 VH with I37V
VL: B4 VL with Q38H
notes: VH.1/VL.v1, back mutations I37V/0
On to B9, for which the EC50 in [5] amounted to 0.018 nM.

B10: 5F12.v5 humanized antibody (antibody, V domains shown)
VH: B4 VH
VL: B4 VL with Q38H, I58V
notes: VH.v1/VL.4, back mutations 0/I58V
In the case of B10, the concentration for a half-maximal effect (EC50) in assay [5] turned out to be 0.028 nM.

B11: 5F12.v10 humanized antibody (antibody, V domains shown)
VH: B4 VH with A68V
VL: B4 VL with Q38H
notes: VH.3/VL.v1, back mutations A67V/0
For B11, in [5], the EC50 was found to be 0.032 nM.

B12: 5G9.v2 humanized antibody (antibody, V domains shown)
VH: B5 VH
VL: B4 VL with Q27H, N30D, K31R, S50Y, Y55Q, K69R, F73L, I83V, Q90N
notes: as for B4
Take B12: in assay [11], the EC50 came to 0.062 nM.

B13: 5F12.v7 humanized antibody (antibody, V domains shown)
VH: B4 VH
VL: B4 VL with Q38H, Y71F
notes: VH.v1/VL.6, back mutations 0/Y71F
B13: the concentration giving a half-maximal response (EC50) in [5] was 0.152 nM.

B14: 5F12.v6 humanized antibody (antibody, V domains shown)
VH: B4 VH
VL: B4 VL with Q38H, K69T
notes: VH.v1/VL.5, back mutations 0/K69T
Turning to B14, the EC50 in [5] was 0.032 nM.

B15: 5F12.v11 humanized antibody (antibody, V domains shown)
VH: B4 VH with L70I
VL: B4 VL with Q38H
notes: VH.4/VL.v1, back mutations L69I/0
In the case of B15, in assay [5], the EC50 is 0.028 nM.

B16: 5G9.v4 humanized antibody (antibody, V domains shown)
VH: B5 VH
VL: DIQMTQSPSSLSASVGDRVTITCKASHDIDRYIAWYQHKPGKGPKLLIYYTSTLQPGIPSRFSGSGSGRDYTLTISSLQPEDVATYYCLNYDNLLWTFGQGTKVEIK
notes: VH.v1/VL.3, back mutations 0/H49Y
Regarding B16, the 50% effective concentration (EC50) in assay [11] was 0.072 nM.

B17: 5G9.v12 humanized antibody (antibody, V domains shown)
VH: B5 VH with I48M
VL: B16 VL with Y49H
notes: VH.5/VL.v1, back mutations I48M/0
Consider B17, for which the EC50 in assay [11] was found to be 0.029 nM.

B18: 5G9.v7 humanized antibody (antibody, V domains shown)
VH: B5 VH
VL: B16 VL with Y49H, Y71F
notes: as for B13
Consider B18, for which the EC50 in assay [11] is 0.053 nM.

B19: 5G9.v3 humanized antibody (antibody, V domains shown)
VH: B5 VH
VL: B16 VL with G43V, Y49H
notes: VH.v1/VL.2, back mutations 0/G43V
Take B19: in assay [11], the concentration for a half-maximal effect (EC50) came to 0.023 nM.

B20: 5F12.v3 humanized antibody (antibody, V domains shown)
VH: B4 VH
VL: B4 VL with Q38H, G43A
notes: VH.v1/VL.2, back mutations 0/G43A
For the molecule B20, in assay [5], the concentration for a half-maximal effect (EC50) was 0.026 nM.

B21: 5F12.v9 humanized antibody (antibody, V domains shown)
VH: B4 VH with I48M
VL: B4 VL with Q38H
notes: VH.2/VL.v1, back mutations I48M/0
B21: the 50% effective concentration (EC50) in [5] turned out to be 0.023 nM.

B22: 5G9.v8 humanized antibody (antibody, V domains shown)
VH: B5 VH with A68V
VL: B16 VL with Y49H
notes: VH.1/VL.v1, back mutations A67V/0
B22: the EC50 in assay [11] was 0.165 nM.

B23: 5G9.v5 humanized antibody (antibody, V domains shown)
VH: B5 VH
VL: B16 VL with Y49H, I58V
notes: as for B10
Take B23: in assay [11], the concentration giving a half-maximal response (EC50) was determined as 0.013 nM.

B24: 5G9.v9 humanized antibody (antibody, V domains shown)
VH: B5 VH with L70I
VL: B16 VL with Y49H
notes: VH.2/VL.v1, back mutations L69I/0
Take B24: the EC50 in [11] was found to be 0.054 nM.

Broadly, the EC50 is the concentration giving half of the maximal effect.
